Test results: patent publication US11459364B2, “Calbindin and BH3 domain chimeric proteins and methods for use” (ProDa Biotech LLC, priority 2014, dated 2022)

System: SW620 cells
Test: Cell viability of SW620 cells by cell counting after treatment with folate-conjugated chimeric proteins
Type: cell-based
Conditions: 5 μM, Calbindin D9k host, folate by disulfide bond via 5 kDa PEG, 48 hours
Description: FIG. 3 illustrates the effects of chimeric proteins having different host peptides and the BH3 domain of Bid on the apoptosis of SW620 cells. […] The SW620 cells were treated with 5 μM of the indicated proteins. The proteins were conjugated to folate by a disulfide bond via a 5 kDa PEG. Cell viability was measured by cell counting 48 hours after treatment with the indicated proteins. Buffer treated cells were used as a reference (100% cell viability). The error bars indicate standard deviations across five repeating experiments.
FIG. 4 illustrates the effects of chimeric proteins having a Calbindin D9k host peptide and different BH3 domains on the apoptosis of SW620 cells. […] The SW620 cells were treated with 5 μM of the indicated proteins. The proteins were conjugated to folate by a disulfide bond via a 5 kDa PEG. Cell viability was measured by cell counting 48 hours after treatment with the indicated proteins. Buffer treated cells were used as a reference (100% viability). The error bars indicate standard deviations across five repeating experiments.
FIG. 7 illustrates the effects of a chimeric protein with a Calbindin D9k host protein, a Bid or Bim BH3 domain, and a conjugated folate on SW620 cells. […] Cell viability was measured by counting cells 48 hours after treatment with the indicated proteins. […]

B1: D-Nox: chimeric protein, Calbindin D9k host with BH3 domain of Noxia, Sequence Id No. 8; tested conjugated to folate (protein)
chain: HMSTKKSPEELKRIFEKYAAKEGDPDQLSKDELKLLIQAEFPCLLKGPNTLDDLFQELDKNPAELEVEMATQLRRFGDKLNFRQKLL
modifications: folate conjugate; Chimeric Variant of human protein and a variant of a BH3 domain
notes: tested conjugated to folate
induction of apoptosis (cell viability), comparison of BH3 domains: most effective in inducing apoptosis
